Laboratory results reported in patent US20210121565A1 (Eli Lilly, published 2021).

Key:
[1] = molecular target: T1, aggregate tau fibrils purified from AD brain homogenates (MC1-affinity purified) (human, UniProt P10636-8 2-441, limits assumed); assay: ELISA, purified AD tau fibrils coated on plate, anti-human IgG-HRP detection
T1 construct: Brain-derived material coated on ELISA plates at 0.7 ug/ml total tau; also called Purified AD Tau Fibrils; purified tau fibrils
Description: Enzyme-Linked Immunosorbant Assay (ELISA) is used to determine relative binding affinity of the exemplified anti-Tau antibody (having both HCs of SEQ ID NO.2 and both LCs of SEQ ID NO.1) to aggregate tau fibrils from AD brain homogenates. AD brain homogenates are prepared from approx. 80 g of cortex from brain of AD patients. Briefly, buffer (TBS/1 mM PMSF/1× Complete® protease inhibitor cocktail (Roche, p/n. 11 697 498 001) and phosphatase inhibitor (ThermoFischer, p/n. 78428)) is added to the AD brain tissue at about 10 ml/1 g (tissue). Tissue is homogenized using a handheld Kinematica Polytron at speed 6-7. Tissue is then further homogenized using Parr Bomb (Parr Instrument, p/n. 4653) at 1500 psi of nitrogen for 30 mins. Homogenate is spun at 28,000 g (J14 Beckman rotor) for 30 min at 4° C. Supernatant is collected, pooled and run over a 4 cm high guard column of Sepharose 400 Superflow to remove larger debris, then run over 25 ml MC1-Affigel 10 column at a flow rate of 50-60 ml per hour, in order to purify MC1-binding tau fibrils. To maximize the recovery of purification, supernatants are recycled through MC-1 column over 18-20 hours at 4° C. […] The concentration of tau within the tau fibrils purified from AD brain homogenate is measured by sandwich ELISA using DA-9 capture antibody and CP27 detection antibody. […]

[2] = molecular target: T2, human monomeric (native or non-aggregate) tau (human, UniProt P10636 2-758); assay: SPR (Biacore 2000, 25 C), antibody captured on protein A, tau as analyte, steady state fit
T2 construct: No tag or expression host is stated; also called Monomeric Tau; monomeric tau
T2 sequence (P10636 other isoform, or with tags, fused parts or gaps limits assumed): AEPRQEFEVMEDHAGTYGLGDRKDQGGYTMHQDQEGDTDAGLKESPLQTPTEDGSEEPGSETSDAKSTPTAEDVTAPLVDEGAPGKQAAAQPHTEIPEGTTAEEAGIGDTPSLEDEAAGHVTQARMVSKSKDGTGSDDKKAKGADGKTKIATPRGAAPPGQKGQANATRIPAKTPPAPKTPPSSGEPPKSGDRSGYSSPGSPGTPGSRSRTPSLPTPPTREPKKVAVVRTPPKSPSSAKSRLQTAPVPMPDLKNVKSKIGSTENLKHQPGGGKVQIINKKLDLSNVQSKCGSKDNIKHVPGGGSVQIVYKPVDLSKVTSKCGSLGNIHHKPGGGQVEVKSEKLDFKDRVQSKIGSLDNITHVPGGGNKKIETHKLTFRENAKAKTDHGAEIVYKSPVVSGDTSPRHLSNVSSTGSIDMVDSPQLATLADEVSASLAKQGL
Description: (§1) Surface Plasmon Resonance (SPR) assay, measured with a BIACORE® 2000 instrument (primed with HBS-EP+running buffer (GE Healthcare, 10 mM Hepes pH7.4+150 mM NaCl+3 mM EDTA+0.05% surfactant P20) at 25° C.), is used to measure binding of an exemplified anti-Tau antibody (having both HCs of SEQ ID NO.2 and both LCs of SEQ ID NO.1) to both human monomeric (e.g., native or non-aggregate) tau and human tau aggregates (both having the amino acid sequence as set forth in SEQ ID NO.13).
(§2) Except as noted, all reagents and materials are from BIACORE® AB (Upsala, Sweden). A CMS chip containing immobilized protein A (generated using standard NHS-EDC amine coupling) on all four flow cells (FC) is used to employ a capture methodology. Antibody samples are prepared at 0.5 μg/mL by dilution into running buffer. […]
(§3) Data of binding to tau aggregate is processed using standard double-referencing and fit to a 1:1 binding model using Biacore 2000 Evaluation software, version 4.1, to determine the association rate (kₒₙ, M⁻¹s⁻¹ units), dissociation rate (koff, s⁻¹ units), and Rₘₐₓ (RU units). The equilibrium dissociation constant (KD) was calculated from the relationship KD=koff/kₒₙ, and is in molar units. Data of binding to monomeric tau cannot be determined accurately by SPR as described above due to rapid on- and off-rates. […]

[3] = molecular target: T3, human tau aggregates (amino acid sequence of SEQ ID NO.13) (human, UniProt P10636 2-758); assay: SPR (Biacore 2000, 25 C), antibody captured on protein A, tau aggregate as analyte, 1:1 fit
T3 construct: also called fibril tau; tau fibril aggregate
T3 sequence (P10636 other isoform, or with tags, fused parts or gaps limits assumed): as above
Description: as §1, §2, §3

[4] = molecular target: T3, human tau aggregates (amino acid …); assay: SPR (Biacore 2000, 25 C), antibody captured on protein A, tau aggregate as analyte, KD=koff/kon, not normalized for avidity
Description: as §1, §2, §3

T1 sequence (P10636 other isoform, or with tags, fused parts or gaps limits assumed): as above

EC50 [1]: 0.0068 nM
Kd [2]: 235 nM
koff [3]: < 1e-05 s⁻¹
kon [3]: 45900 M⁻¹ s⁻¹
Kd [4]: < 0.22 nM
B1: Exemplified anti-Tau antibody (having both HCs of SEQ ID NO.2 and both LCs of SEQ ID NO.1) (antibody, human IgG4 S228P, kappa, F234A L235A, V domains shown)
VH: EVQLVQSGAEVKKPGESLKISCKGSGYTFSNYWIEWVRQMPGKGLEWMGEILPGSDSIKYEKNFKGQVTISADKSISTAYLQWSSLKASDTAMYYCARRGNYVDDWGQGTLVTVSS
VL: EIVLTQSPGTLSLSPGERATLSCRSSQSLVHSNQNTYLHWYQQKPGQAPRLLIYKVDNRFSGIPDRFSGSGSGTDFTLTISRLEPEDFAVYYCSQSTLVPLTFGGGTKVEIKR
notes: It was expressed in CHO cells; also called Exemplified anti-Tau mAb; exemplified tau monoclonal antibody
